Biological target: T1, Streptavidin (UniProt P22629 37-163, limits assumed)
T1 construct: also called negative antigen; irrelevant antigen
Assay: ELISA, scFv

T1 sequence (P22629 37-163 limits assumed): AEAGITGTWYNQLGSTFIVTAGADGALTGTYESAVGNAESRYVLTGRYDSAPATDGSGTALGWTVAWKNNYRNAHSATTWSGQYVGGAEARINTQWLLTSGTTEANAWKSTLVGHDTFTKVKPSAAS

| Binder | binding result |
| --- | --- |
| A-003 (scFv format) (scFv, V domains shown, scFv) VH: VQLVQSGAEVKKPGSSVKVSCKASGGTFSSYAISWVRQAPGQGLEWMGGIIPIFGTANYAQKFQGRVTITADESTSTAYMELSSLRSEDTAVYYCASPRIQLWAAGGFDYWGQGTLVTVSS VL: QSALTQPASVSGSPGQSITISCTGTSSDVGGYNLVSWYQQHPGKAPKLMIYDVSNRPSGVSNRFSGSKSGNTASLTISGLQAEDEADYYCSSFTTSTTLVFGGGTKLTVL | no binding (tested: <0.025 or <0.05 RFU) |
| A-010 (scFv format) (scFv, V domains shown, scFv) VH: QVQLVQSGAEVKKPGASVKVSCKASGYTFTSYGISWVRQAPGQGLEWMGWISAYNGNTNYAQKLQGRVTMTTDTSTSTAYMELRSLRSDDTAVYYCARVPAWSGQFDYWGQGTLVTVSS VL: QSALTQPASVSGSPGQSITISCTGSSSDVGGYNYVSWYQQYPGKAPKLMIYDVRSRPSGVSNRFSGSKSGNTASLTISGLQAEDEADYYCTSYTSSNTLVIFGGGTKVTVL | no binding (tested: <0.025 or <0.05 RFU) |
| A-024 (scFv format) (scFv, V domains shown) VH: QMQLVQSGAEVKKPGSSVKVSCKASGGTFSSYAISWVRQAPGQGLEWMGWISAYNGNTNYAQKLQGRVTMTTDTSTSTAYMELRSLRSDDTAVYYCASLGSYGYTGAFDIWGQGTMATVSS VL: QSALTQPASVSGSPGQSITISCTGTSSDVGGYNYVSWYQQHPGKAPKLMIYEVSNRPSGVSNRFSGSKSGNTASLTISGLQAEDEADYYCSSYTSSSTLVVFGGGTKLTVL | no binding (tested: <0.025 or <0.05 RFU) |
| A-023 (scFv format) (scFv, V domains shown, scFv) VH: QVQLVQSGAEVKKPGSSVKVSCKASGGTFSSYAISWVRQAPGQGLEWMGGIIPIFGTANYAQKFQGRVTITADESTSTAYMELSSLRSEDTAVYYCARPKYSSGWFYYYGMDVWGQGTTVTVSS VL: QSVLTQPPSVSAAPGQKVTISCSGSSSNIGNNYVSWYQQLPGTAPKLLIYDNNKRPSGIPDRFSGSKSGTSATLGITGLQTGDEADYYCGTWDSSLSVVFGGGTKLTVL | no binding (tested: <0.025 or <0.05 RFU) |
| A-001 (scFv format) (scFv, V domains shown, scFv) VH: EVQLVESGGGLVKPGGSLRLSCAASGFTFSSYSMNWVRQAPGKGLEWVSSISSSSSYIYYADSVKGRFTISRDNAKNSLYLQMNSLRAEDTAVYYCVRSIIVQALGITSVFDIWGQGTMVTVSS VL: AIRLTQSPSSLSASVGDRVTISCRASQIISNHLNWYQQKPGKAPKLLIYAASRLQTGVPSRFSGSGSETDYTLTISSLQPEDFATYYCQQSYSNPRTFGHGTKVEIK | no binding (tested: <0.025 or <0.05 RFU) |
| A-015 (scFv format) (scFv, V domains shown, scFv) VH: not shown VL: QPVLTQSPSASASLGASVKLTCTLSSGHTNYAIAWRQQQPGKAPRYLMLLNSDGSHTRGGGIPDRFSGSSSGAERYLTISSLQSEDEADYYCMIWHNNAWVFGGGTKLAVL | no binding (tested: <0.025 or <0.05 RFU) |
| A-022 (scFv format) (scFv, V domains shown, scFv) VH: EVQLLESGPGLVKPSQTLSLTCTVSGGSISSGGYYWSWIRQHPGKGLEWIGYIYYSGSTYYNPSLKSRVTISVDTSKNQFSLKLSSVTAADTAVYYCARASRSTDYYFDYWGQGTLVTVSS VL: QPGLTQPPSMSYGLGQTATLTCTGNRNNIGDQGAAWLQQHQGHPPKLLSYRNNNGPSGISERLSASRSGNTASLTISGLQPEDEADYYCSAWDSSLRAWVFGGGTKLTVL | no binding (tested: <0.025 or <0.05 RFU) |
| A-034 (scFv format) (scFv, V domains shown, scFv) VH: QMQLVQSGGGLVKPGGSLRLSCAASGFTFSSYTMNWVRQAPGKGLEWVSSISSIGTYIYYADSVKGRFTISRDNAKNSLYLQMNSLRAEDTAVYYCARVLLSGSYYGYFDSWGQGTLVTVSS VL: QSVLTQPPSVSGAPGQRVTISCTGSSSNIGAGYDVHWYQQLPGTAPKLFIYGNSNRPSGVPDRFSGSKSGTSASLAITGLQAEDEADYYCQSYDSSLSGYVFGTGTKVTVL | no binding (tested: <0.025 or <0.05 RFU) |
| A-033 (scFv format) (scFv, V domains shown, scFv) VH: QVQLVQSGAEVKKPGASVKVSCKASGYTFTSYGISWVRQAPGQGLEWMGWISAYNGNTNYAQKLQGRVTMTTDTSTSTAYMELRSLRSDDTAVYYCARDHSIVGATTFDYWGQGTLVTVSS VL: not shown | no binding (tested: <0.025 or <0.05 RFU) |
| A-002 (scFv format) (scFv, V domains shown, scFv) VH: EVQLVESGGGLIQPGGSLRLSCAASGFTVSSNYMSWVRQAPGKGLEWVSVIYSGGSTYYADSVKGRFTISRDNSKNTLYLQMNSLRAEDTAVYYCARGNPYYYGDLQVNFDYWGQGTLVTVSS VL: QAVVTQEPSLTVSPGGTVTPTCGSSTGAVTSGNLPNWFQQKPGQAPRALIYSTSNKHSWTPARISGSLLGGKAALTLSGVQPEDEAEYYCLLYYGGAWVFGGGTKLTVL | no binding (tested: <0.025 or <0.05 RFU) |
| A-012 (scFv format) (scFv, V domains shown, scFv) VH: EVQLLESGGGLIQPGGSLRLSCAVSGFTVSSNYMSWVRQAPGKGLEWVSVIYSGGSTYYADSVKGRFTISRDNSKNTLYLQMNSLRAEDTAVYYCARGNPYYYGDLQVNFDYWGQGTLVTVSS VL: QAVVTQEPSLTVSPGGTVTLTCASSTGAVTSGYYPNWFQQKPGQAPRALIYSTSNKHSWTPARFSGSLLGGKAALTLSGVQPEDEAEYYCLLYYGGAWVFGGGTKLTVL | no binding (tested: <0.025 or <0.05 RFU) |
| A-006 (scFv format) (scFv, V domains shown, scFv) VH: EVQLVESGGGLIQPGGSLRLSCAASGFTVSSNYMSWVRQAPGKGLEWVSVIYSGGSTYYADSVKGRFTISRDNSKNTLYLQMNSLRAEDTAVYYCARGNPYYYGDLQVNFDYWGQGTLVTVSS VL: QAVVTQEPSLTVSPGGTVTLTCASSTGAVTSGYYPNWFQQKPGQAPRPLIYSTSNKHSWTPARFSGSLLGGKAALTLSGVQPDDEAEYYCLLYYGGDWVFGGGTKLTVL | no binding (tested: <0.025 or <0.05 RFU) |
| A-013 (scFv format) (scFv, V domains shown, scFv) VH: EVQLVESGGGLIQPGGSLRLSCAASGFTVSSNYMSWVRQAPGKGLEWVSVIYSGGSTYYADSVKGRFTISRDNSKNTLYLQMNSLRAEDTAVYYCARGNPYYYGDLQVNFDYWGQGTLVTVSS VL: QAVVTQEPSLTVSPGGTVTLTCASSTGAVTSAYYPNWFQQKPGQAPRALIYSTSNKHSWTPARFSGSLLGGKAALTLSGVQPEDEADYYCLLYYGGAWVFGGGTKLTVL | no binding (tested: <0.025 or <0.05 RFU) |
| A-005 (scFv format) (scFv, V domains shown, scFv) VH: EVQLVESGGGLIQPGGSLRLSCAASGFTVSSNYMSWVRQAPGKGLEWVSVIYSGGSTYYADSVKGRFTISRDNSKNTLYLQMNSLRAEDTAVYYCARGNPYYYGDLQVNFDYWGQGTLVTVSS VL: QAVVTQEPSLTVSPGETVTLTCASSTGAVTSGYYPNWFQQRPGQAPRALIYSTSNKDSWTPARFSGSLLGGKAALTLSGVQPEDEAEYYCLLYYGGAWVFGGGTKLTVL | no binding (tested: <0.025 or <0.05 RFU) |
| A-009 (scFv format) (scFv, V domains shown, scFv) VH: QVQLVQSGAEVKKPGSSVKVSCKASGGTFSSYAISWVRQAPGQGLEWMGGIIPIFGTANYAQKFQGRVTITADESTSTAYMELSSLRSEDTAVYYCARGRGFGELYFDYWGQGTLVTVSS VL: ETTLTQSPATLSVSPGERATLSCRASQGVRSNIAWYQQKPGQAPRLLIYDSSTRATGIPARFSGSGSGTEFTLTISSLQSEDFAVYSCQQYKNWPRTFGQGTKVEIK | no binding (tested: <0.025 or <0.05 RFU) |
| A-027 (scFv format) (scFv, V domains shown, scFv) VH: QVQLVQSGAEVKKPGSSVKVSCKASGGTFSSYAISWVRQAPGQGLEWMGGIIPIFGTANYAQKFQGRVTITADKSTSTAYMELSSLRSEDTAVYYCARARGSTWGYFDYWGQGTLVTVSS VL: EIVLTQSPASLSLSPGERVTLSCRASQSVSNYLAWYQQKPGQAPRLLIYDASNRATGIPARFSGSGSGTDFTLTISSLEPEDFAVYYCQQRDNWPLTFGGGTKVEIK | no binding (tested: <0.025 or <0.05 RFU) |
| A-025 (scFv format) (scFv, V domains shown, scFv) VH: QVQLVQSGAEVKKPGSSVKVSCKASGGTFSSYAISWVRQAPGQGLEWMGGIIPIFGTANYAQKFQGRVTITADESTSTAYMELTSLRSEDTAVYYCARGGWLRQNWFDPWGQGTLVTVSS VL: SSELTQDPAVSVALGQTVRITCQGDSLRSYYASWYQQKPGQAPVLVIYGKNNRPSGIPDRFSGSSSGNTASLTITGAQAEDEADYYCNSRDSSGNHPRVFGGGTKLTVL | no binding (tested: <0.025 or <0.05 RFU) |
| A-008 (scFv format) (scFv, V domains shown, scFv) VH: QLQLQESGPGLVKPSETLSLTCTVSGGSISSSGYYWGWIRQPPGKGLEWIGSIYYSGSTYYNPSLKSRVTISVDTSKNQFSLKLSSVTAADTAVYYCARHRVRFGEFDAFDIWGQGTMVTVSS VL: QAVLTQPPSVSGAPGERVTLSCTGTSSNVGADFDVHWYQQFPGTAPRLLIFGSDNRPSGVPDRFSGSKSGTSASLAITGLQVEDEADYYCQAYDVRLSGWVFGGGTKLTVL | no binding (tested: <0.025 or <0.05 RFU) |
| A-007 (scFv format) (scFv, V domains shown, scFv) VH: not shown VL: QSALTQPASVSGSPGQSITIACTGSSSDIGSFSYVSWYQQRPGKAPTLIIYGVNNRPLGVSRRFSGSKSGNTASLSISGLQAEDEADYYCSSYTRRSTVIFGGGTKLTVL | no binding (tested: <0.025 or <0.05 RFU) |
| A-016 (scFv format) (scFv, V domains shown, scFv) VH: QVQLQESGAEVKKPGASVKVSCKASGYTFTGYYMHWVRQAPGQGLEWMGGIIPIFGTANYAQKFQGRVTITADESTSTAYMELSSLRSEDTAVYYCAGAGMELTRSGAYYYYGMDVWGQGTTVTVSS VL: QSALTQPASVSGSPGQSITISCTGTSSDIGGYTFVSWYQQHPGKAPKVMIHDVNNRPSGISNRFSGSKSGNTASLTISGLQAEDEADYYCSSVTSTNTYVFGTGTKVTVL | no binding (tested: <0.025 or <0.05 RFU) |
| A-029 (scFv format) (scFv, V domains shown, scFv) VH: QVQLVQSGAEVKKPGSSVKVSCKASGGTFSSYAISWVRQAPGQGLEWMGGIIPIFGTANYAQKFQGRVTITADESTGTAYMELSSLRSEDTAVYYCARSYYYYYGMDVWGQGTTVTVSS VL: not shown | no binding (tested: <0.025 or <0.05 RFU) |
| A-011 (scFv format) (scFv, V domains shown, scFv) VH: QVQLVESGGGVVQPGRSLRLSCAASGFTFSSYAMHWVRQAPGKGLEWVAVISYDGSNKYYADSVKGRFTISRDNSKNTLYLQMNSLRAEDTAVYYCAEGGALNYYGMDVWGQGTTVTVSS VL: SSELTQDPGVSVALGQTVRITCQGDSLRHFYATWYQQKPGQAPILVIYGKNNRPSGIPDRFSGSSSEDTASLTITGAQAEDEADYYCQSRDPRNNHLIFGGGTKLIVL | no binding (tested: <0.025 or <0.05 RFU) |
